In the DeepSol protein solubility set:

Assay: soluble on expression in E. coli; label from the status in PepcDB or PDB records

Row | Sequence | soluble on expression in E. coli
1 | ASEKVEMNLVTSQGVGQSIGSVTITETDKGLEFSPDLKALPPGEHGFHIHAKGSCQPATKDGKASAAESAGGHLDPQNTGKHEGPEGAGHLGDLPALVVNNDGKATDAVIAPRLKSLDEIKDKALMVHVGGDNMSDQPKPLGGGGERYACGVIK | soluble
2 | MAHHHHHHMYRNLFDKLKDGPLKISILGSGNWASAISKVVGTNAKNNYLFENEVRMWIRDEFVNGERMVDIINNKHENTKYLKGVPLPHNIVAHSDLASVINDADLLIFIVPCQYLESVLASIKESESIKIASHAKAISLTKGFIVKKNQMKLCSNYISDFLNIPCSALSGANIAMDVAMENFSEATIGGNDKDSLVIWQRVFDLPYFKINCVNETIEVEICGALKNIITLACGFCDGLNLPTNSKSAIIRNGINEMILFGKVFFQKFNENILLESCGFADIITSFLAGRNAKCSAEFIKSTPKKTWEELENEILKGQKLQGTVTLKYVYHMIKEKNMTNEFPLFTVLHKISFENEDPSSLLKTFMNNKINQLNL | soluble
3 | GPGSMSAIKRSLNVGVVGMGNMGIPITRNLAFKARSAMYLQIHSRTLSKARQVCDDMSADGATCAMRIHDRYSTMTKWCDVILLTLAHRAASRKVLLEDSEALVTNARPGQIIVDHTTVDMELSRECAHEAERRGAVFLDAPMSGSPKQAFNNQLVLMVGGPAEQVQRVSPIFRMYADHIHHMGANGSGTAAKLLSQALVASHNAAAAEAMTIANRLGIEDYQKLIQVLDASWGSSTMLRRNAPTMQDLVRNPDKLAPSSGASIDNLLEDLALLDASLPKIEKGDNGNGGREVEEERFPVLDASLRMLGAAVESGMGDRDMAAVIHYIPAAAAMEKEEGVRVQPRGLTSGAFLDRNATGKVNSGPAAAAGAAVAASSPPTPAEIEMDPGSLADSLSAAESSSNGKGSTTQAASIAEPLTTASSQQPPAFTPEDFY | soluble
4 | MPANARSHAVLTTESKVTIRGQTTIPAPVREALKLKPGQDSIHYEILPGGQVFMCRLGDEQEDHTMNAFLRFLDADIQNNPQKTRPFNIQQGKKLVAGMDVNIDDEIGDDE | soluble
5 | MGSDKIHHHHHHMRYLRADERCLICSLRQAENLLKKTITSPEKRWVIFREVFRIMSEMKWGMKPLEVNGEVHRFIMEYIKEEDPFKEEKRRSNDMAIKLVEMFRPEILNSPDPVYSAAKLAVSGNLIDLGIPGWSVDEIFEKLHEVYERPFDREDFEKFRNVLMNASTLFYVADNAGEIVFDKFFIEVLKMENPSLEVVVAVRGKPIINDATIEDAKYIGLEEIATVISSGVDEPGVMLDKASEEFRKAFFEFDVVISKGQGNFEGLYEEEKKNLFFLLTAKCDFVAEVLNVPLGGKVFISSSSL | not soluble
6 | MGSDKIHHHHHHMIITPDTLKALFTGFKKNFQDGLKMAESQYKEIATVIPSSTASNTYGWLGQWPAFREWVGDRVFQDMKAHGYAITNKHFESSVKVNRNDIEDDNVGIYAPMMTEMGRASAVHPDELVFALLKNAHATLCYDGQNFFDTDHPVYEKVDGTGQASTVSNIFAGSEAAWYLLDTTRALKPLIYQERKAKQFTAMTADTDEGVFMRNEYRYGVDGRCNVGLGFWQMAAKSQEKLDAAGFEKAYNAMVSLKGDGGRPLAIRPNVLLVPPALENAAKELVEGDRLANGAYNPNKGKAKVIVSPWLL | not soluble
7 | MSLTSYALLHTQRVTAKNGEVFTISPDLWERNQQQQSLLLRYFALPLKEENNRLWLGVDSLSNLSACETIAFITGKPVEPILLESSQLKELLQQLTPNQMQVEEQVEGHHHHHH | soluble
8 | MGHHHHHHSHCPQESVYCENKCGARMMRRLLAQHATSECPKRTQPCTYCTKEFVFDTIQSHQYQCPRLPVACPNQCGVGTVAREDLPGHLKDSCNTALVLCPFKDSGCKHRCPKLAMARHVEESVKP | not soluble
9 | MSSSHLAERHAFSDLSLLSEALAQSVTVTLRNAIERYGKASLVVPGGHTPVVYLPRLAQMDLPWQQVFITLSDERWVEPTSEQSNERLVREHFLQHMQQQPHFIALKTGHIHPDQAITDIDARLAELPQPFSLVILGLGEDGHIASLFPGMALNPDTTSLCQTATPPAAPSLRISLSLHALINSDRIILVITGKEKRQLIDRLIESPDQNIPFVRLMQFKPVELFETD | not soluble
10 | AMAEAYQIQSNGDPQSKPLLELYVKASGIDARRIGADLFCQEFWMELYALYEIGVARVEVKTVNVNSEAFKKNFLGAQPPIMIEEEKELTYTDNREIEGRIFHLAKEFNVPLFEKDPSAEKRIENLYRNFKLFLRAKVEFDKGKKEPSRVEDLPAQIKVHYNRVCEQLSNIDQLLSERKSRYLLGNSMTEYDCELMPRLHHIRIIGLSLLGFDIPHNFTHLWAYILTAYRTAAFIESCPADQDIIHHYKEQMNLFTNQRETLQSPTKTHTIPEKVLSDIRVKGLAPDVNVH | soluble
